{
  "source": "paper doi:10.1101/2021.03.15.435440",
  "about": "(bioRxiv, 2021)",
  "binders": {"B1": {"name": "Ab15 (antibody, V domains shown)", "VH": "EVQLQQSGPELVKPGASVKISCKASGYSFTGYYMNWVKQSPEKSLEWIGEINPNFGGTTYNQKFKAKATLTVDKSSSTAYMQLKSLTSEDSAVYYCARYYGNLYAMDYWGQGTSVTVS", "VL": "DILMTQSPSSMSVSLGDTVSITCHASQGISSNIGWLQQKPGKSFKGLIYHGTNLEDGVPSRFSGSGSGAAYSLTISSLESEDFADYYCVQYTHFPYTFGGGTKLEIK"}, "B2": {"name": "Ab19 (antibody, V domains shown)", "VH": "QVQLQQSGAELARPGASVKLSCKASGYPFTSYGINWVKQRTGQGLEWIGEIYPRIGNTYYNEKFKGKATLTADKSSSTAYMEFRSLTSEDSAVYFCARSWNSNYGEYYFDYWGQGTTLTVS", "VL": "DIVMTQSHKFMSTSIGDRVSITCKASHDVSTAVAWYQQKPGQSPKLLIYWASTRHTGVPDRFTGSGSGTDYTLTIRSVQAEDLALYYCQQHYSTPYTFGGGTKLEIK"}, "B3": {"name": "Ab20 (antibody, V domains shown)", "VH": "EVQLQQSGPELVKPGASVKISCKASGFSFTGYSMNWMKQSPEKSLEWIGEINPTTGGTTYNQKFKAKATLTVDKSSSTAYIQLKSLTSEDSAVYYCARGRADYWGQGTTLTVSS", "VL": "DIVLTQSPASLAVSLGQRATISCRASESVEYYGTGLVQWFQQKPGQPPKLLIYAASNVESGVPARFSGSGSGTDFSLNIHSVEEDDIAMYFCHQSRKLPWTFGGGTKLEIK"}, "B4": {"name": "Ab16 Fab (Fab, V domains shown)", "VH": "EVQLQQSGPELVKPGASVKISCKASGYSFNNYYMNWVKQSPEKSLEWIGEINPNSGYTSYNQKFRAKATLTVDKSSTTAYMQLKSLTSEDSAVYYCARYFGNLFAMDFWGQGTSVTVS", "VL": "DILMTQSPSSMSVSLGDTVSITCHASQGIGSNIGWLQQKPGKSFKGLIYLGTNLEDGVPSRFSGSGSGADYSLTISSLESEDFADYYCVQYVQFPYTFGGGTKLEIK"}},
  "key": {"[1]": {"target": "T1, wildtype SARS-2 RBD (SARS-CoV-2, GenBank MN975262.1 …, UniProt A0A679G9E9)"}, "[2]": {"target": "T1, wildtype SARS-2 RBD", "experiment": "BLI"}},
  "note": "Read-outs that look alike come from different tables or passages of the source.",
  "data": [
    {"binder": "B1", "values": [
      {"measurement": "binding result", "setting": "[1]", "result": "binds"}
    ]},
    {"binder": "B2", "values": [
      {"measurement": "binding result", "setting": "[1]", "result": "binds"}
    ]},
    {"binder": "B3", "values": [
      {"measurement": "binding result", "setting": "[1]", "result": "binds"}
    ]},
    {"binder": "B4", "values": [
      {"measurement": "binding result", "setting": "[2]", "result": "binds"}
    ]}
  ]
}
